Assay results published in patent US10738094B2, “Peptides and combination of peptides for use in immunotherapy against ovarian cancer and other cancers” (immatics biotechnologies GmbH, priority 2015, dated 2020).

Target: HLA-A*02:01 (Homo sapiens, UniProt P04439, D140Y/D185E/D98H/E176V/E277Q/G131W/G231S/I119V/I121R/I166T/I218V/L300P/L318F/N151K/N90K/P208A/P217A/Q86G/Q94H/R138H/R169H/T345S)
Assay: MHC binding assay (UV-ligand exchange, beta2m ELISA)
Conditions: binding to HLA-A*02:01 ranged by peptide exchange yield (UV-ligand exchange, β2m ELISA)
Procedure, shortened: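 Stabilised complexes were quantified via their β2m light chain: 100-fold-diluted monomers bound to streptavidin plates, then HRP anti-β2m at 2 ug/ml for 1 h at 37° C., TMB read at 450 nm. The value is the yield of UV-induced exchange of a photocleavable peptide for the candidate.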

| Substance | Peptide exchange |
| --- | --- |
| 505 (SLAPGDVVRQV; listed as Homo sapiens) [compound 505] | “++” (≥20% = ++) |
| 506 (KLLGKVETA; listed as Homo sapiens) [compound 506] | “+++” (≥50 = +++) |
| 507 (KLIDDQDISISL; listed as Homo sapiens) [compound 507] | “+++” (≥50 = +++) |
| 508 (ILAQEQLVVGV; listed as Homo sapiens) [compound 508] | “+++” (≥50 = +++) |
| 509 (FLFDTKPLIV; listed as Homo sapiens) [compound 509] | “+++” (≥50 = +++) |
| 510 (KLYSVVSQL; listed as Homo sapiens) [compound 510] | “++” (≥20% = ++) |
| 512 (SLSEIVPCL; listed as Homo sapiens) [compound 512] | “+++” (≥50 = +++) |
| 513 (SLWPSPEQL; listed as Homo sapiens) [compound 513] | “++” (≥20% = ++) |
| 514 (ILVDWLVQV; listed as Homo sapiens) [compound 514] | “+++” (≥50 = +++) |
| 515 (LLQELVLFL; listed as Homo sapiens) [compound 515] | “+++” (≥50 = +++) |
| 516 (AVGPASILKEV; listed as Homo sapiens) [compound 516] | “++” (≥20% = ++) |
| 517 (LLMPIPEGLTL; listed as Homo sapiens) [compound 517] | “+++” (≥50 = +++) |
| 518 (KLNAEVACV; listed as Homo sapiens) [compound 518] | “+++” (≥50 = +++) |
| 519 (GLLHLTLLL; listed as Homo sapiens) [compound 519] | “+++” (≥50 = +++) |
| 520 (LAVHPSGVAL; listed as Homo sapiens) [compound 520] | “+” (≥10% = +) |
| 521 (MLLTKLPTI; listed as Homo sapiens) [compound 521] | “+++” (≥50 = +++) |
| 522 (TLWYRSPEV; listed as Homo sapiens) [compound 522] | “++” (≥20% = ++) |

The remaining lines, values ahead:

| Peptide exchange | Substance |
| --- | --- |
| “++” (≥20% = ++) | 523 (YQIPRTFTL; listed as Homo sapiens) [compound 523] |
| “++” (≥20% = ++) | 524 (ALIENLTHQI; listed as Homo sapiens) [compound 524] |
| “+++” (≥50 = +++) | 525 (VLLEAGEGLVTI; listed as Homo sapiens) [compound 525] |
| “++” (≥20% = ++) | 526 (RLAEVGQYEQV; listed as Homo sapiens) [compound 526] |
| “++++” (≥75% = ++++) | 527 (FLLEPGNLEV; listed as Homo sapiens) [compound 527] |
| “+++” (≥50 = +++) | 528 (SVAEGRALMSV; listed as Homo sapiens) [compound 528] |
| “+++” (≥50 = +++) | 529 (LLADELITV; listed as Homo sapiens) [compound 529] |
| “+++” (≥50 = +++) | 530 (VMYADIGGMDI; listed as Homo sapiens) [compound 530] |
| “+++” (≥50 = +++) | 531 (YTLPIASSIRL; listed as Homo sapiens) [compound 531] |
| “+++” (≥50 = +++) | 537 (TLAPGEVLRSV; listed as Homo sapiens) [compound 537] |
| “++” (≥20% = ++) | 538 (LLLAHIIAL; listed as Homo sapiens) [compound 538] |
| “+++” (≥50 = +++) | 539 (ALFDAQAQV; listed as Homo sapiens) [compound 539] |
| “+++” (≥50 = +++) | 541 (SMLEPVPEL; listed as Homo sapiens) [compound 541] |
| “+++” (≥50 = +++) | 542 (RVWDISTVSSV; listed as Homo sapiens) [compound 542] |
| “+++” (≥50 = +++) | 543 (GLLPTPITQQASL; listed as Homo sapiens) [compound 543] |
